Experimental data taken from patent US20220226442A1 (published 2022).

B1: CD25 (receptor)
chain: ELCDDDPPEIPHATFKAMAYKEGTMLNCECKRGFRRIKSGSLYMLCTGNSSHSSWDNQCQCTSSATRNTTKQVTPQPEEQKERKTTEMQSPMQPVDQASLPGHCREPPPWENEATERIYHFVVGQMVYYQCVQGYRALHRGPAESVCKMTHGKTRWTQPQLICTGEMETSQFPGEEKPQASPEGRPESETSCLVTTTDFQIQTEMAATMETSIFTTEYQHHHHHH
Kd (V69A): 23 pM
Kd (E68Q): 22 pM
Kd (L72I): 24 pM
Kd (M104D): 28 pM
Kd (I114W): 38 pM
Kd (N71Y): 18 pM
